In patent US20060257406A1 (published 2006):

Target: T1, human TNFα (human, UniProt P01375 77-233)
T1 construct: also called TAR1; TNF alpha
Assay: TNF receptor assay (ELISA): inhibition of TNF binding to plate-bound TNF receptor 1-Fc

T1 sequence (P01375 77-233 limits assumed): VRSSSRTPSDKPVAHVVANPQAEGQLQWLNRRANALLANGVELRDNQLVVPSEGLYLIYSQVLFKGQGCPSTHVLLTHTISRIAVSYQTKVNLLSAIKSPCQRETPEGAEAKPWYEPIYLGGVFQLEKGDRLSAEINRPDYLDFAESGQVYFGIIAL

B1: trimeric TAR1-5-19CYS (other)
chain: DIQMTQSPSSLSASVGDRVTITCRASQSIDSYLHWYQQKPGKAPKLLIYSASELQSGVPSRFSGSGSGTDFTLTISSLQPEDFATYYCQQVVWRPFTFGQGTKVEIKRC
modifications: C-terminal Cys coupled to TMEA (Tris[2-maleimidoethyl]amine)
notes: also called the trimer; TAR1-5-19 homotrimer
  IC50: 0.3 nM
